{"source": "patent US20030180282A1", "about": "“Method of treatment of thrombotic events” (priority 2002, published 2003)", "molecules": {"B1": {"name": "t-PA: recombinant tissue plasminogen activator, thrombolytic agent (Genentech) (protein, UniProt P00750 36-562, looked up)", "Tissue-type plasminogen …": "SYQVICRDEKTQMIYQQHQSWLRPVLRSNRVEYCWCNSGRAQCHSVPVKSCSEPRCFNGGTCQQALYFSDFVCQCPEGFAGKCCEIDTRATCYEDQGISYRGTWSTAESGAECTNWNSSALAQKPYSGRRPDAIRLGLGNHNYCRNPDRDSKPWCYVFKAGKYSSEFCSTPACSEGNSDCYFGNGSAYRGTHSLTESGASCLPWNSMILIGKVYTAQNPSAQALGLGKHNYCRNPDGDAKPWCHVLKNRRLTWEYCDVPSCSTCGLRQYSQPQFRIKGGLFADIASHPWQAAIFAKHRRSPGERFLCGGILISSCWILSAAHCFQERFPPHHLTVILGRTYRVVPGEEEQKFEVEKYIVHKEFDDDTYDNDIALLQLKSDSSRCAQESSVVRTVCLPPADLQLPDWTECELSGYGKHEALSPFYSERLKEAHVRLYPSSRCTSQHLLNRTVTDNMLCAGDTRSGGPQANLHDACQGDSGGPLVCLNDGRMTLVGIISWGLGCGQKDVPGVYTKVTNYLDWIRDNMRP"}}, "key": {"[1]": {"tested_on": "platelets", "assay": "platelet aggregation in platelet-rich plasma of AMI patients during first 24 hours after r-PA or t-PA", "type": "in vivo, human", "details": "3, 6, 12, 24 hours; r-PA: all agonists except ristocetin", "text": "Twenty-three consecutive patients admitted to the emergency rooms of St. Agnes Hospital, or the Union Memorial Hospital between July and December of 1996 with a diagnosis of acute myocardial infarction were included. All patients were enrolled in the randomized trial of Reteplase (r-PA) versus accelerated Alteplase (t-PA) for the treatment of acute myocardial infarction, (GUSTO-III trial). […]\nThe schedule of blood drawing, sample preparation and processing were critical issues of the study design, and were monitored by an independent observer. […]\nCitrate and whole blood were immediately mixed 1:9 and then centrifuged at 1200 g for 2.5 minutes in order to obtain platelet-rich plasma (PRP) which was kept at room temperature for use within 1 hour. Platelet counts were determined for each PRP sample with Coulter Counter ZM (Coulter Co., Hialeah, Fla.). […] PA was expressed as the maximum percentage of light transmittance change from the baseline using platelet-poor plasma as a reference at the end of the recording time. PA curves were recorded for 4 minutes and analyzed according to internationally established standards (see, e.g. Ruggeri, Z. M. (1994) Semin. Hemat. 31:229-239). […]"}, "[2]": {"tested_on": "platelets", "assay": "rapid platelet-function assay (Ultegra)", "type": "cell-based, human", "details": "TNK 12 μg/mL, t-PA 4 μg/mL", "method": "Blood samples for the in vitro study were obtained from 9 healthy volunteers. None of the subjects smoked or had hypertension, diabetes, or an abnormal hematocrit. None had received aspirin or any other antiplatelet drugs. All subjects underwent blood sampling after at least 30 minutes of rest and 2 or more hours of fasting. Blood was drawn from an antecubital vein between 8 am and 10 am in order to avoid any diurnal influence. A 21-gauge butterfly needle was used to draw blood into a tube containing 3.8% sodium citrate (1:9 volume); the first 1.5 mL of free running blood was discarded. One tube was kept as an internal control. A second tube was incubated with tenecteplase (TNK) for 30 minutes at room temperature in order to achieve a final concentration of 12 μg/mL. The third tube was similarly incubated with alteplase (t-PA) to achieve a concentration of 4 μg/mL. The concentrations of TNK and t-PA that were chosen approximated conventional plasma levels observed in patients receiving TNK and t-PA bolus (30 mg, and 15 mg, respectively; data on file, Genentech, Inc., South San Francisco, Calif.). Fresh solutions of TNK and t-PA were prepared in Dulbecco's phosphate buffered saline (DPBS) ex tempore on the morning of the platelet studies.\nWith rapid platelet-function assay (RPFA (Ultegra®); Accumetrics, Inc., San Diego, Calif.), polystyrene beads coated with fibrinogen are placed in a cartridge along with a peptide that activates the thrombin receptor. A whole blood citrate mixture is added to the cartridge, and agglutination between platelets and coated beads is recorded. The data mirror turbidometric platelet aggregation and reflect the degree of platelet glycoprotein IIb/IIIa blockade.\nFor all comparisons, statistical analyses were done by using repeated measures ANOVA. Post hoc comparison was performed by use of the Bonferroni t-test to identify specific differences in platelet aggregation and receptor expression between patients treated with TNK and t-PA, and controls. […] Normally distributed data were expressed as mean±SE, and skewed data as median (range). […]"}}, "data": [{"molecule": "B1", "values": [{"measurement": "platelet aggregation, change between baseline and other time points", "setting": "[1]", "value": "no statistically significant differences"}, {"measurement": "platelet activation units (Ultegra) compared with DPBS", "setting": "[2]", "value": "reduction"}]}]}
